Test results reported in the Human Domainome abundance scans (Beltran et al. 2025).
± gives the uncertainty stated by the source.

B1: Peroxisome proliferator-activated receptor delta, residues 71 to 145; numbered along this chain, Q03181 (parent)
chain: NMECRVCGDKASGFHYGVHACEGCKGFFRRTIRMKLEYEKCERSCKIQKKNRNKCQYCRFQKCLALGMSHNAIRF

Variants of: B1
Experiment: abundance fitness (aPCA) (normalised: wild type 0, dead -1); higher = more abundant; growth selection in yeast, the domain comes from the species named
Details: Homo sapiens

Abundance fitness of substitutions, site by site:
K54: F 0.065 ± 0.072, T -0.017 ± 0.046, M 0.052 ± 0.052, L -0.046 ± 0.039, S -0.079 ± 0.043, P -0.037 ± 0.053, I -0.031 ± 0.072, Y 0.17 ± 0.07, W -0.036 ± 0.047, D -0.02 ± 0.063, V -0.037 ± 0.035, E 0.122 ± 0.041, Q -0.012 ± 0.048, H -0.059 ± 0.091, A 0.009 ± 0.04
E39: P 0.072 ± 0.04, R -0.224 ± 0.032, K 0.017 ± 0.057, H -0.336 ± 0.1, L -0.229 ± 0.041, C -0.586 ± 0.13, I -0.191 ± 0.077, D -0.063 ± 0.055, S -0.094 ± 0.037, T -0.052 ± 0.045, M -0.167 ± 0.057, G -0.221 ± 0.033, Y -0.447 ± 0.1, W -0.518 ± 0.064, Q -0.082 ± 0.052, N -0.222 ± 0.075, A -0.057 ± 0.036, V -0.061 ± 0.034
K50: E 0.111 ± 0.045, L -0.069 ± 0.042, N 0.147 ± 0.085, I 0.132 ± 0.095, Y -0.295 ± 0.13, T -0.018 ± 0.051, S -0.046 ± 0.048, F 0.07 ± 0.17, D 0.094 ± 0.059, P -0.089 ± 0.071, M 0.034 ± 0.054, Q 0.077 ± 0.056, C -0.164 ± 0.066, R -0.06 ± 0.035, V -0.129 ± 0.041, W -0.056 ± 0.042, A 0.06 ± 0.036
Y38: A -0.738 ± 0.079, C -0.741 ± 0.15, I -0.483 ± 0.12, N -0.72 ± 0.23, E -0.803 ± 0.11, P -0.758 ± 0.1, W -0.397 ± 0.061, R -0.846 ± 0.075, S -0.868 ± 0.1, M -0.631 ± 0.12, H -0.718 ± 0.22, K -0.776 ± 0.14, L -0.544 ± 0.077, T -0.607 ± 0.099, Q -1.02 ± 0.26, V -0.74 ± 0.091
E42: A -0.179 ± 0.037, K -0.209 ± 0.063, S -0.117 ± 0.04, D -0.16 ± 0.073, L -0.195 ± 0.04, R -0.367 ± 0.038, N -0.335 ± 0.1, M -0.051 ± 0.054, C -0.394 ± 0.077, T -0.117 ± 0.042, G -0.135 ± 0.028, F -0.139 ± 0.089, I -0.304 ± 0.089, H -0.195 ± 0.08, P -0.25 ± 0.056, W -0.295 ± 0.049, Q -0.104 ± 0.049, Y -0.093 ± 0.089, V -0.074 ± 0.035
R52: Q -0.03 ± 0.052, S -0.022 ± 0.04, K 0.207 ± 0.049, D 0.075 ± 0.065, H -0.307 ± 0.11, F -0.155 ± 0.12, W -0.286 ± 0.056, L -0.087 ± 0.042, M -0.078 ± 0.056, T -0.012 ± 0.047, Y 0.012 ± 0.14, I 0.012 ± 0.087, E -0.037 ± 0.042, V 0.07 ± 0.038, P 0.128 ± 0.045, C -0.241 ± 0.076, N -0.084 ± 0.09
I47: M -0.132 ± 0.044, K -0.453 ± 0.061, E -0.235 ± 0.035, F -0.246 ± 0.074, D -0.126 ± 0.054, C -0.51 ± 0.062, W -0.316 ± 0.034, G -0.269 ± 0.025, R -0.502 ± 0.034, N -0.4 ± 0.098, S -0.287 ± 0.038, Y -0.419 ± 0.11, T -0.253 ± 0.048, H -0.589 ± 0.1, V 0.004 ± 0.027
Q56: N -0.145 ± 0.084, L -0.031 ± 0.039, I -0.599 ± 0.19, E 0.077 ± 0.042, Y -0.116 ± 0.076, W -0.341 ± 0.059, D 0.189 ± 0.052, M -0.066 ± 0.062, R -0.227 ± 0.037, C 0.005 ± 0.067, P -0.025 ± 0.046, S 0.008 ± 0.039, A 0.074 ± 0.035, F -0.079 ± 0.096, K -0.214 ± 0.063, G 0.002 ± 0.031, T -0.321 ± 0.056
L36: Y -0.047 ± 0.084, K -0.165 ± 0.075, P -0.374 ± 0.067, F -0.162 ± 0.091, D -0.461 ± 0.14, E -0.109 ± 0.055, S -0.235 ± 0.052, H -0.151 ± 0.086, A -0.135 ± 0.042, Q -0.222 ± 0.059, C -0.13 ± 0.064, R -0.26 ± 0.04, G -0.224 ± 0.038, T -0.139 ± 0.053, M -0.05 ± 0.058
K35: Y -0.456 ± 0.12, W -0.535 ± 0.091
N53: H -0.152 ± 0.099, Y -0.249 ± 0.098, R -0.185 ± 0.037, A -0.086 ± 0.041, K -0.104 ± 0.069, M -0.067 ± 0.052, D -0.08 ± 0.067, E 0.123 ± 0.042, G -0.033 ± 0.035, C -0.274 ± 0.11, Q -0.152 ± 0.064, W -0.127 ± 0.048, T -0.112 ± 0.051, F -0.083 ± 0.092, I -0.051 ± 0.074, L -0.217 ± 0.044
